Laboratory results reported in paper PMC9804225.

What was measured:
[1] = biological target: recombinantly expressed GFP Nb; test: BLI; Nbs immobilised by their C-terminal His-tag on Ni-NTA biosensor tips; untagged GFP as analyte at 1 nM to 100 nM
[2] = biological target: synthetic GFP Nb_(1–123)‐linker‐PA (5), folded; test: as above

Substance: untagged GFP (from UniProt P42212 1-238) (natural protein)
- Kd [1]: 1.12 nM
- Kd [2]: 1.11 nM
